# Molecular target: the molecule itself
# Experiment: cross-linking; glutaraldehyde (final 0.001-0.002% v/v in refolding buffer) on refolded NS2-3 precursor (0.2 uM), 50 ul, 25 °C, 5 min; SDS-PAGE and western blot with anti-FLAG; monomer to dimer
protein,measurement,value
"JFH-1 NS2-3 wild-type precursor (HCV genotype 2a NS2-3 autoprotease, residues 907-1210) (domain or fragment, The wild type auto-cleaves at 25 °C with about 30% efficiency overnight; also called WT NS2-3; NS2-3 precursor; not shown: FLAG, C-terminal, kept) RAALTHVPYFVRAHALIRVCALVKQLAGGRYVQVALLALGRWTGTYIYDHLTPMSDWAASGLRDLAVAVEPIIFSPMEKKVIVWGAETAACGDILHGLPVSARLGQEILLGPADGYTSKGWKLLAPITAYAQQTRGLLGAIVVSMTGRDRTEQAGEVQILSTVSQSFLGTTISGVLWTVYHGAGNKTLAGLRGPVTQMYSSAEGDLVGWPSPPGTKSLEPCKCGAVDLYLVTRNADVIPARRRGDKRGALLSPRPISTLKGSSGGPVLCPRGHVVGLFRAAVCSRGVAKSIDFIPVETLDVVTR",stoichiometry N,2

# From paper PMC2824112, “A comparative analysis of the fluorescence properties of the wild-type and active site mutants of the hepatitis C virus autoprotease NS2-3” (Biochimica et Biophysica Acta, 2010)
